In patent US20220235109A1 (CUGENE, published 2022):

Molecular target: T1, IL-2Rβγ on human CD8+ T cells, NK cells and CD4+ T cells (human, UniProt P14784 27-551; P31785 23-369)
T1 sequence (looked up) 1: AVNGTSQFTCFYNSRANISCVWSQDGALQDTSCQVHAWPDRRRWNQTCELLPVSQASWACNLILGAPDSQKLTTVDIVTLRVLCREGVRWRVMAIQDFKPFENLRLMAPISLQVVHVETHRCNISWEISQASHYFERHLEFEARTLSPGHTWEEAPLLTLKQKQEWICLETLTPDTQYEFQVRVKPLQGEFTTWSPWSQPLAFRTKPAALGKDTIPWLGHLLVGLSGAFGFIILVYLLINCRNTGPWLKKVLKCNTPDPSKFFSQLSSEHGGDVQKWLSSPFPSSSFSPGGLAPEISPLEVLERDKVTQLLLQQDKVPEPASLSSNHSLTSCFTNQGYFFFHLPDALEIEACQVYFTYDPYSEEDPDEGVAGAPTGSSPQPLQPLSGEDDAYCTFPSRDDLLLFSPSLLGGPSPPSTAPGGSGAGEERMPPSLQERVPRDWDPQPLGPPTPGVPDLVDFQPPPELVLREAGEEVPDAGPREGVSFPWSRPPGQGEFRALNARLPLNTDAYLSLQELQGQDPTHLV
T1 sequence (looked up) 2: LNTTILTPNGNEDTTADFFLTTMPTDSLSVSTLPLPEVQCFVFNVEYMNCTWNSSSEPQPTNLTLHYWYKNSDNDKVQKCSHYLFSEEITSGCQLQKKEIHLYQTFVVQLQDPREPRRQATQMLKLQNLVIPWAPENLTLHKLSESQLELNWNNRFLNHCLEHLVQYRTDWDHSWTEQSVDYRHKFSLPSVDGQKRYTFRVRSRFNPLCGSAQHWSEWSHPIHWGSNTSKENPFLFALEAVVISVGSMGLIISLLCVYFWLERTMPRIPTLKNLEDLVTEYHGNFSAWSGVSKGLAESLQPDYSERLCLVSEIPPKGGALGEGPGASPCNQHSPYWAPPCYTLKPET
Assay: cell-based or functional assay

B1: P-0880 (antibody, human IgG1, kappa)
heavy 1: not shown
heavy 2: EVQLVESGGGLVKPGGSLRLSCAASGFTFSSYDMSWVRQAPGKGLEWVATISGGGSYTYYPDSVKGRFTISRDNAKNSLYLQMNSLRAEDTAVYYCASPDSSGVAYWGQGTLVTVSSASTKGPSVFPLAPSSKSTSGGTAALGCLVKDYFPEPVTVSWNSGALTSGVHTFPAVLQSSGLYSLSSVVTVPSSSLGTQTYICNVNHKPSNTKVDKKVEPKSCDKTHTCPPCPAPEAAGAPSVFLFPPKPKDTLMISRTPEVTCVVVDVSHEDPEVKFNWYVDGVEVHNAKTKPREEQYNSTYRVVSVLTVLHQDWLNGKEYKCKVSNKALPAPIEKTISKAKGQPREPQVCTLPPSREEMTKNQVSLSCAVKGFYPSDIAVEWESNGQPENNYKTTPPVLDSDGSFFLVSKLTVDKSRWQQGNVFSCSVMHEALHNHYTQKSLSLSPG
light: DIVMTQSPLSLPVTPGEPASITCKASQDVETVVAWYLQKPGQSPRLLIYWASTRHTGVPDRFSGSGSGTDFTLKISRVEAEDVGVYYCQQYSRYPWTFGQGTKLEIKRTVAAPSVFIFPPSDEQLKSGTASVVCLLNNFYPREAKVQWKVDNALQSGNSQESVTEQDSKDSTYSLSSTLTLSKADYEKHKVYACEVTHQGLSSPVTKSFNRGEC
- Ki67 EC50 (nM), CD8+ T: 1.7 nM
- Ki67 EC50 (nM), NK: 3.6 nM
- pSTA5 EC50 (pM), CD8+ T: 73 pM
- pSTA5 EC50 (pM), NK: 643 pM

B2: P-0882 (antibody, human IgG1, kappa)
heavy 1: EVQLVESGGGLVKPGGSLRLSCAASGFTFSSYDMSWVRQAPGKGLEWVATISGGGSYTYYPDSVKGRFTISRDNAKNSLYLQMNSLRAEDTAVYYCASPDSSGVAYWGQGTLVTVSSASTKGPSVFPLAPSSKSTSGGTAALGCLVKDYFPEPVTVSWNSGALTSGVHTFPAVLQSSGLYSLSSVVTVPSSSLGTQTYICNVNHKPSNTKVDKKVEPKSCDKTHTCPPCPAPEAAGAPSVFLFPPKPKDTLMISRTPEVTCVVVDVSHEDPEVKFNWYVDGVEVHNAKTKPREEQYNSTYRVVSVLTVLHQDWLNGKEYKCKVSNKALPAPIEKTISKAKGQPREPQVYTLPPCREEMTKNQVSLWCLVKGFYPSDIAVEWESNGQPENNYKTTPPVLDSDGSFFLYSKLTVDKSRWQQGNVFSCSVMHEALHNHYTQKSLSLSPGGGGGSGGGGSGGGGSAPTSSSTKKTQLQLEHLLHDLQMILNGINNYKNPKLTRMLTFKFYMPKKATELKHLQCLEEELKRLEEVLNLAQSKNFHLRPRDLISNINVIVLELKGSETTFMCEYADETATIVEFLNRWITFIQSIISTLT
heavy 2: EVQLVESGGGLVKPGGSLRLSCAASGFTFSSYDMSWVRQAPGKGLEWVATISGGGSYTYYPDSVKGRFTISRDNAKNSLYLQMNSLRAEDTAVYYCASPDSSGVAYWGQGTLVTVSSASTKGPSVFPLAPSSKSTSGGTAALGCLVKDYFPEPVTVSWNSGALTSGVHTFPAVLQSSGLYSLSSVVTVPSSSLGTQTYICNVNHKPSNTKVDKKVEPKSCDKTHTCPPCPAPEAAGAPSVFLFPPKPKDTLMISRTPEVTCVVVDVSHEDPEVKFNWYVDGVEVHNAKTKPREEQYNSTYRVVSVLTVLHQDWLNGKEYKCKVSNKALPAPIEKTISKAKGQPREPQVCTLPPSREEMTKNQVSLSCAVKGFYPSDIAVEWESNGQPENNYKTTPPVLDSDGSFFLVSKLTVDKSRWQQGNVFSCSVMHEALHNHYTQKSLSLSPG
light: DIVMTQSPLSLPVTPGEPASITCKASQDVETVVAWYLQKPGQSPRLLIYWASTRHTGVPDRFSGSGSGTDFTLKISRVEAEDVGVYYCQQYSRYPWTFGQGTKLEIKRTVAAPSVFIFPPSDEQLKSGTASVVCLLNNFYPREAKVQWKVDNALQSGNSQESVTEQDSKDSTYSLSSTLTLSKADYEKHKVYACEVTHQGLSSPVTKSFNRGEC
- Ki67 EC50 (nM), CD8+ T: 77 nM
- Ki67 EC50 (nM), NK: 230 nM
- pSTA5 EC50 (pM), CD8+ T: 513 pM
- pSTA5 EC50 (pM), NK: 9920 pM
